Measured values as given in PMC9163697, “Mechanistic insights into the activation of the IKK kinase complex by the Kaposi’s sarcoma herpes virus oncoprotein vFLIP” (The Journal of Biological Chemistry, 2022).

Columns and labels:
WT vFLIP(1–177) [1] = biological target: T1, WT vFLIP(1–177) (Kaposi's sarcoma-associated herpes …, UniProt Q76RF1 1-177); assay: native gel or EMSA; blue native gel (4–20%), 8–10 μg of purified complexes of IKKγ(150–272) with vFLIP or complexes assembled from the concentrated proteins; bands excised and analysed by SDS-PAGE; conditions: both partners purified
T1 construct: vFLIP of the Kaposi's sarcoma-associated herpes virus (KSHV), residues 1-177; also called recombinant vFLIP; source: mutants said to be expressed in E. coli

[2] = biological target: the molecule itself; assay: native MS; proteins and complexes exchanged into 200 mM ammonium acetate pH 8.5, 3.2 μM, nanoelectrospray, Synapt QToF; collision-induced dissociation of selected species
WT vFLIP(1–177) [3] = biological target: T1, WT vFLIP(1–177); assay: as above; conditions: both partners purified

B1: IKKγ(150–272) (domain or fragment, UniProt Q9Y6K9 150-272, looked up)
chain: LGELQESQSRLEAATKECQALEGRARAASEQARQLESEREALQQQHSVQVDQLRMQGQSVEAALRMERQAASEEKRKLAQLQVAYHQLFQEYDNHIKSSVVGSERKRGMQLEDLKQQLQQAEE
notes: IKKγ (Nemo), regulatory subunit of the IKK kinase complex, residues 150-272; also called Nemo; WT IKKγ
WT vFLIP(1–177) [1]
  stoichiometry N: 1 vFLIP per IKKγ
[2]
  binding result: binds
WT vFLIP(1–177) [3]
  stoichiometry N: 0.5 vFLIP per IKKγ
